Laboratory results published in patent publication US20150219635A1.

Target: IgE-Fc(E289C)_BirA, terbium chelate labelled, biotinylated, mixed with Alexa488 labelled streptavidin (human), P01854
Experiment: cell-based or functional assay

Chain of IgE-Fc(E289C)_BirA, terbium chelate labelled, biotinylated, mixed with Alexa488 labelled streptavidin (human), P01854 (P01854 other isoform, or with tags, fused parts or gaps, stated change not applied): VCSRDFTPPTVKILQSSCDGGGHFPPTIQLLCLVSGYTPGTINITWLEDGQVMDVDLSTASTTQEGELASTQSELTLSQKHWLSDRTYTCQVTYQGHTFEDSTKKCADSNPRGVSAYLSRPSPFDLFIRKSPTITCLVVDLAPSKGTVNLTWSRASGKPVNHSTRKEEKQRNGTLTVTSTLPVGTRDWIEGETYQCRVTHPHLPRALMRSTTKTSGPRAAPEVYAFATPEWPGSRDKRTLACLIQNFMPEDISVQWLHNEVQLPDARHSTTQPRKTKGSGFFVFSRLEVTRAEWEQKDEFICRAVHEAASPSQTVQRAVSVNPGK

B1: Fab7 (anti-human IgE Fab, human IgG1 Fab format) (Fab)
heavy: QVQLQQSGPGLVKPSQTLSLTCGISGDSVSSNSAAWNWLRQSPSRGLEWLGRTYYRSKWYNDYAVSMKSRITINPDTSRNQFSLQLNSVTPEDTAVYYCARDGEISYDYYYYGMDVWGRGTLVTVSSASTKGPSVFPLAPSSKSTSGGTAALGCLVKDYFPEPVTVSWNSGALTSGVHTFPAVLQSSGLYSLSSVVTVPSSSLGTQTYICNVNHKPSNTKVDKKVEPKSC
light: not shown
modifications: here or on the partner: thiol reactive terbium chelate on the Cys of E289C; biotin on the C-terminal BirA recognition motif (carrying Alexa488 labelled streptavidin)
normalised FRET, mean, at [Fab] 0.152 nM: 1 | normalised FRET, mean, at [Fab] 0.45 nM: 0.2 | normalised FRET, mean, at [Fab] 1.37 nM: 1.55 | normalised FRET, mean, at [Fab] 4.4 nM: 0.1 | normalised FRET, mean, at [Fab] 12.3 nM: 2 | normalised FRET, mean, at [Fab] 37.03 nM: 9.68 | normalised FRET, mean, at [Fab] 111 nM: 28.8 | normalised FRET, mean, at [Fab] 333 nM: 39.3 | normalised FRET, mean, at [Fab] 1000 nM: 43.4 | normalised FRET, mean, at [Fab] 3000 nM: 41
